Data taken from patent US8563513 (VAN ANDEL RESEARCH INSTITUTE, dated 2013).
Each block holds one binder with its values, some of them ahead of it. Where no end group is shown, it is not given here.

Key:
[1] = molecular target: T1, PTH1R in cell membranes, G protein-coupled conformation (RG) (UniProt Q03431 27-593); test: competition binding, PTH1R in cell membranes, RG state (dominant negative Gαs), n = 3
T1 construct: whole, on cells; Cell membranes, not intact cells; RG state studied by co-expressing the receptor with dominant negative Gαs; also called G protein-coupled receptor

[2] = molecular target: T2, MBP-PTH1R ECD-(His)6 fusion protein (UniProt Q03431 29-187); test: AlphaScreen single point competition; peptide 20 µM against biotin-PTH(7-34)NH2 (23 nM) on MBP-PTH1R-ECD (23 nM) [panel H]
T2 construct: range 29-187; Expressed in E. coli, disulfide shuffled in vitro; also called MBP-PTH1R ECD-H6; MBP-PTH1R ECD fusion protein
T2 sequence: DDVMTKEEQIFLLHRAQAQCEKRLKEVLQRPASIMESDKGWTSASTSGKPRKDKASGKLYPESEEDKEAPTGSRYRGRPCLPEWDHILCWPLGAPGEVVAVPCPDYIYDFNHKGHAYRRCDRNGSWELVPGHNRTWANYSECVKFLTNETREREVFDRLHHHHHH
Method: (§1) ECD-peptide binding assays. The binding of peptides to the MBP-PTH1R ECD-H6 fusion protein was assessed using an AlphaScreen assay (Perkin-Elmer). […] The pre-coupling reactions were mixed, un-labeled competitor peptides were added as indicated, and the reactions were incubated 4 to 5 hrs to reach equilibrium. Photon counts were recorded in 384-well optiplates using an Envision 2104 plate reader (Perkin-Elmer). Prism 5.0 software (GraphPad Software, San Diego) was used to fit the data to a fixed-slope dose-response inhibition equation for determination of IC50 values. Real-time analysis of the binding of peptides to the isolated PTH1R ECD using the Octet Red system (ForteBio) was performed as described in below.

[3] = molecular target: T2, MBP-PTH1R ECD-(His)6 fusion protein; test: AlphaScreen single point competition; peptide 20 µM against biotin-PTH(7-34)NH2 (23 nM) on MBP-PTH1R-ECD (23 nM) [panel A]
Method: as §1

[4] = molecular target: T2, MBP-PTH1R ECD-(His)6 fusion protein; test: AlphaScreen single point competition; peptide 20 µM against biotin-PTH(7-34)NH2 (23 nM) on MBP-PTH1R-ECD (23 nM) [panel I]
Method: as §1

[5] = molecular target: T2, MBP-PTH1R ECD-(His)6 fusion protein; test: AlphaScreen single point competition; peptide 20 µM against biotin-PTH(7-34)NH2 (23 nM) on MBP-PTH1R-ECD (23 nM) [panel B]
Method: as §1

T1 sequence (Q03431 27-593): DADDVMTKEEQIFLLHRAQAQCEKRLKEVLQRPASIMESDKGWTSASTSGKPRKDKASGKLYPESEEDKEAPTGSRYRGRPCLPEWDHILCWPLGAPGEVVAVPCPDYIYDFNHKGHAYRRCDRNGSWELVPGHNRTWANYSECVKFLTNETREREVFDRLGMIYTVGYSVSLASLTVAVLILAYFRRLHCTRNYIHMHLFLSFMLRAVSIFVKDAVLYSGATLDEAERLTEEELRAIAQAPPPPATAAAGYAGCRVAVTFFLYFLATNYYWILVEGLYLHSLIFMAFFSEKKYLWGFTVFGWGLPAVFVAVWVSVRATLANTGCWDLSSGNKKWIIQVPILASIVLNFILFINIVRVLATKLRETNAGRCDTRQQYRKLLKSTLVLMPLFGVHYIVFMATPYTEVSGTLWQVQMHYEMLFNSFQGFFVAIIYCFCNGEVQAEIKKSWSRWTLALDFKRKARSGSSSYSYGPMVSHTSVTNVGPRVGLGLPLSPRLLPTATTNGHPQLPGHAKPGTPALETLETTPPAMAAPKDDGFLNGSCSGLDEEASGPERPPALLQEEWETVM

B2: PTH(15-34)NH2 (peptide)
peptide: LNSMERVEWLRKKLQDVHNF-NH2
notes: also called C-terminally amidated 15-34 fragment of PTH
binding result [2]: binds

B4: F34A (peptide)
peptide: LNSMERVEWLRKKLQDVHNA-NH2
notes: also called PTH(15-34)NH2 [F34A]
binding result [2]: binds

B5: H32A (peptide)
peptide: LNSMERVEWLRKKLQDVANF-NH2
notes: also called PTH(15-34)NH2 [H32A]
binding result [2]: binds

B6: K26A (peptide)
peptide: LNSMERVEWLRAKLQDVHNF-NH2
notes: also called PTH(15-34)NH2 [K26A]
binding result [2]: binds

B7: K27A (peptide)
peptide: LNSMERVEWLRKALQDVHNF-NH2
notes: also called PTH(15-34)NH2 [K27A]
binding result [2]: binds

B8: L24A (peptide)
peptide: LNSMERVEWARKKLQDVHNF-NH2
notes: also called PTH(15-34)NH2 [L24A]
binding result [2]: no binding (tested: 20 µM)

B10: L28I/V31I (peptide)
peptide: LNSMERVEWLRKKIQDIHNF-NH2
notes: also called PTH(15-34)NH2 [L28I/V31I]
binding result [3]: binds

B12: PTH(15-34)NH2 [K27′L/V31′I] (peptide)
peptide: LNSMERVEWLRKLLQDIHNF-NH2
notes: Hybrid PTH/PTHrP peptide in the PTH(15-34)NH2 scaffold
binding result [3]: binds

B14: PTH(15-34)NH2 [L28′I] (peptide)
peptide: LNSMERVEWLRKKIQDVHNF-NH2
notes: as for B12
binding result [3]: binds

B15: PTH(15-34)NH2 [V31′I] (peptide)
peptide: LNSMERVEWLRKKLQDIHNF-NH2
notes: as for B12
binding result [3]: binds

B16: PTH(15-34)NH2 [W23′F/K27′L/L28′I/V31′I] (peptide)
peptide: LNSMERVEFLRKLIQDIHNF-NH2
notes: Quadruple swap peptide in the PTH(15-34)NH2 scaffold; also called W23′F/K27′L/L28′I/V31′I peptide
binding result [3]: binds

B18: PTH(15-34)NH2 [W23′F] (peptide)
peptide: LNSMERVEFLRKKLQDVHNF-NH2
notes: as for B12
binding result [3]: binds

B19: Q29A (peptide)
peptide: LNSMERVEWLRKKLADVHNF-NH2
notes: also called PTH(15-34)NH2 [Q29A]
binding result [2]: binds

B21: V21A (peptide)
peptide: LNSMERAEWLRKKLQDVHNF-NH2
notes: also called PTH(15-34)NH2 [V21A]
binding result [2]: binds

B23: W23A (peptide)
peptide: LNSMERVEALRKKLQDVHNF-NH2
notes: also called PTH(15-34)NH2 [W23A]
binding result [2]: no binding (tested: 20 µM)

B25: W23F/V31I (peptide)
peptide: LNSMERVEFLRKKLQDIHNF-NH2
notes: also called PTH(15-34)NH2 [W23F/V31I]
binding result [3]: binds

B26: F23A (peptide)
peptide: GKSIQDLRRRFALHHLIAEIHTA-NH2
notes: also called PTHrP(12-34)NH2 [F23A]
binding result [4]: binds

B27: F23W/I28L (peptide)
peptide: GKSIQDLRRRFWLHHLLAEIHTA-NH2
notes: also called PTHrP(12-34)NH2 [F23W/I28L]
binding result [5]: binds

B29: H32A (peptide)
peptide: GKSIQDLRRRFFLHHLIAEIATA-NH2
notes: also called PTHrP(12-34)NH2 [H32A]
binding result [4]: binds

B31: I28L/I31V (peptide)
peptide: GKSIQDLRRRFFLHHLLAEVHTA-NH2
notes: also called PTHrP(12-34)NH2 [I28L/I31V]
binding result [5]: binds

B32: I31A (peptide)
peptide: GKSIQDLRRRFFLHHLIAEAHTA-NH2
notes: also called PTHrP(12-34)NH2 [I31A]
binding result [4]: binds

B33: L24A (peptide)
peptide: GKSIQDLRRRFFAHHLIAEIHTA-NH2
notes: also called PTHrP(12-34)NH2 [L24A]
binding result [4]: binds

B34: L27A (peptide)
peptide: GKSIQDLRRRFFLHHAIAEIHTA-NH2
notes: also called PTHrP(12-34)NH2 [L27A]
binding result [4]: binds

B36: PTHrP(12-34)NH2 [F23′W/L27′K] (peptide)
peptide: GKSIQDLRRRFWLHHKIAEIHTA-NH2
notes: Hybrid PTH/PTHrP peptide in the PTHrP(12-34)NH2 scaffold
binding result [5]: binds

B38: PTHrP(12-34)NH2 [I28′L] (peptide)
peptide: GKSIQDLRRRFFLHHLLAEIHTA-NH2
notes: as for B36
binding result [5]: binds

B40: PTHrP(12-34)NH2 [L27′K/I28′L] (peptide)
peptide: GKSIQDLRRRFFLHHKLAEIHTA-NH2
notes: as for B36
binding result [5]: binds

B41: PTHrP(12-34)NH2 [L27′K/I31′V] (peptide)
peptide: GKSIQDLRRRFFLHHKIAEVHTA-NH2
notes: as for B36
binding result [5]: binds

B42: PTHrP(12-34)NH2 [L27′K] (peptide)
peptide: GKSIQDLRRRFFLHHKIAEIHTA-NH2
notes: as for B36
binding result [5]: binds

B44: R19A (peptide)
peptide: GKSIQDLARRFFLHHLIAEIHTA-NH2
notes: also called PTHrP(12-34)NH2 [R19A]
binding result [4]: binds

B45: R20A (peptide)
peptide: GKSIQDLRARFFLHHLIAEIHTA-NH2
notes: also called PTHrP(12-34)NH2 [R20A]
binding result [4]: no binding (tested: 20 µM)

B46: R21A (peptide)
peptide: GKSIQDLRRAFFLHHLIAEIHTA-NH2
notes: also called PTHrP(12-34)NH2 [R21A]
binding result [4]: binds

B47: T33A (peptide)
peptide: GKSIQDLRRRFFLHHLIAEIHAA-NH2
notes: also called PTHrP(12-34)NH2 [T33A]
binding result [4]: binds

Further lines, results first:

IC50 [1]: 380 pM
IC50 Log M [1]: -9.5 Log M
B1: PTH(1-34)NH2 [K27L/L28I] (peptide)
peptide: SVSEIQLMHNLGKHLNSMERVEWLRKLIQDVHNF-NH2

binding result [2]: binds
B3: E19A (peptide)
peptide: LNSMARVEWLRKKLQDVHNF-NH2
notes: also called PTH(15-34)NH2 [E19A]

binding result [2]: no binding (tested: 20 µM)
B9: L28A (peptide)
peptide: LNSMERVEWLRKKAQDVHNF-NH2
notes: also called PTH(15-34)NH2 [L28A]

binding result [3]: binds
B11: PTH(15-34)NH2 [K27′L/L28′I] (peptide)
peptide: LNSMERVEWLRKLIQDVHNF-NH2
notes: as for B12

binding result [3]: binds
B13: PTH(15-34)NH2 [K27′L] (peptide)
peptide: LNSMERVEWLRKLLQDVHNF-NH2
notes: as for B12

binding result [3]: binds
B17: PTH(15-34)NH2 [W23′F/K27′L] (peptide)
peptide: LNSMERVEFLRKLLQDVHNF-NH2
notes: as for B12

binding result [2]: binds
B20: R20A (peptide)
peptide: LNSMEAVEWLRKKLQDVHNF-NH2
notes: also called PTH(15-34)NH2 [R20A]

binding result [2]: binds
B22: V31A (peptide)
peptide: LNSMERVEWLRKKLQDAHNF-NH2
notes: also called PTH(15-34)NH2 [V31A]

binding result [3]: binds
B24: W23F/L28I (peptide)
peptide: LNSMERVEFLRKKIQDVHNF-NH2
notes: also called PTH(15-34)NH2 [W23F/L28I]

binding result [5]: binds
B28: F23W/I31V (peptide)
peptide: GKSIQDLRRRFWLHHLIAEVHTA-NH2
notes: also called PTHrP(12-34)NH2 [F23W/I31V]

binding result [4]: binds
B30: I28A (peptide)
peptide: GKSIQDLRRRFFLHHLAAEIHTA-NH2
notes: also called PTHrP(12-34)NH2 [I28A]

binding result [5]: binds
B35: PTHrP(12-34)NH2 [F23′W/L27′K/I28′L/I31′V] (peptide)
peptide: GKSIQDLRRRFWLHHKLAEVHTA-NH2
notes: Quadruple swap peptide in the PTHrP(12-34)NH2 scaffold; also called quadruply mutant PTHrP peptide

binding result [5]: binds
B37: PTHrP(12-34)NH2 [F23′W] (peptide)
peptide: GKSIQDLRRRFWLHHLIAEIHTA-NH2
notes: as for B36

binding result [5]: binds
B39: PTHrP(12-34)NH2 [I31′V] (peptide)
peptide: GKSIQDLRRRFFLHHLIAEVHTA-NH2
notes: as for B36

binding result [4]: binds
B43: Q16A (peptide)
peptide: GKSIADLRRRFFLHHLIAEIHTA-NH2
notes: also called PTHrP(12-34)NH2 [Q16A]
